According to patent US20200087373A1 (UNIVERSITY OF COPENHAGEN, published 2020):
Ends that are not written are not given here. * marks the point of attachment. C16 diacid = O=C(O)CCCCCCCCCCCCCCC(=O)*

T1: human GIP receptor (human, UniProt P48546 22-466)
T1 sequence (looked up): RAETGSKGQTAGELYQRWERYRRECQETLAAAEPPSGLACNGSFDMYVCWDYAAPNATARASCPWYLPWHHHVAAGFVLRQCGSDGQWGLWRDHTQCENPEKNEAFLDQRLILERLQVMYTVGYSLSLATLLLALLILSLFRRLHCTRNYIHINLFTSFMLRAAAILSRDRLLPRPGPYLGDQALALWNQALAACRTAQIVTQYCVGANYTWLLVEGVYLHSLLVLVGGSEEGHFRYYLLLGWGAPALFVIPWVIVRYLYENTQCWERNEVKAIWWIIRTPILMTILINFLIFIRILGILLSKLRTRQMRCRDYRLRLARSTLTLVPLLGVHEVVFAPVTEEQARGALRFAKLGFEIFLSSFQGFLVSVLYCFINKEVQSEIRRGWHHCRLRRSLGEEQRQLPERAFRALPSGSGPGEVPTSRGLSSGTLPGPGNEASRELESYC


Legend:
human GIP receptor [1] = target: T1, human GIP receptor; experiment: cell-based or functional assay
human GIP receptor [2] = target: T1, human GIP receptor; experiment: 125I-hGIP competition binding, COS-7/hGIPR, 2% HSA;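 note: nonspecific binding defined as radioligand binding to untransfected cells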
Method: (§1) After incubation, the cells were washed twice in ice-cold binding buffer (+/−2% HSA) and lysed using 200 mM NaOH with 1% SDS for 30 min. Nonspecific binding was determined as the binding of radioactive ligand to untransfected cells.

human GIP receptor [3] = target: T1, human GIP receptor; experiment: 125I-hGIP competition binding, COS-7/hGIPR, 0.1% casein;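 note: nonspecific binding defined as radioligand binding measured on untransfected cells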
Method: as §1

human GIP receptor [4] = target: T1, human GIP receptor; experiment: 125I-hGIP competition binding, COS-7 cells expressing hGIPR;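 note: nonspecific binding taken as radioligand bound by untransfected cells, binding buffer with or without 2% HSA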
Method: as §1

human GIP receptor [5] = target: T1, human GIP receptor; experiment: IC50 with 2% HSA over IC50 with 0.1% casein, 125I-hGIP competition, COS-7/hGIPR
Method: as §1

Row | Binder | cAMP agonism, Emax (human GIP receptor [1]) | cAMP antagonism (human GIP receptor [1]) | cAMP antagonism, log (human GIP receptor [1]) | IC50 (human GIP receptor [2]) | logIC50 (human GIP receptor [2]) | IC50 (human GIP receptor [3]) | logIC50 (human GIP receptor [3]) | IC50 (human GIP receptor [4]) | log IC50 (human GIP receptor [4]) | Fold change HSA (2%)/Casein (0.1%) (human GIP receptor [5]) | cAMP agonism (human GIP receptor [1]) | cAMP agonism, EC50 (log) (human GIP receptor [1])
1 | TFISDYSIAMDKIHQQDFK(C16 diacid)NWLLAQK-NH2 (N-terminus assumed; SMILES CC[C@H](C)[C@H](NC(=O)[C@H](CO)NC(=O)[C@H](Cc1ccc(O)cc1)NC(=O)[C@H](CC(=O)O)NC(=O)[C@H](CO)NC(=O)[C@@H](NC(=O)[C@H](Cc1ccccc1)NC(=O)[C@@H](N)[C@@H](C)O)[C@@H](C)CC)C(=O)N[C@@H](C)C(=O)N[C@@H](CCSC)C(=O)N[C@@H](CC(=O)O)C(=O)N[C@@H](CCCCN)C(=O)N[C@H](C(=O)N[C@@H](Cc1c[nH]cn1)C(=O)N[C@@H](CCC(N)=O)C(=O)N[C@@H](CCC(N)=O)C(=O)N[C@@H](CC(=O)O)C(=O)N[C@@H](Cc1ccccc1)C(=O)N[C@@H](CCCCNC(=O)CCCCCCCCCCCCCCC(=O)O)C(=O)N[C@@H](CC(N)=O)C(=O)N[C@@H](Cc1c[nH]c2ccccc12)C(=O)N[C@@H](CC(C)C)C(=O)N[C@@H](CC(C)C)C(=O)N[C@@H](C)C(=O)N[C@@H](CCC(N)=O)C(=O)N[C@@H](CCCCN)C(N)=O)[C@@H](C)CC) [AT183 [hGIP(5-30)NH2[V23K]-C16diacid/23]] | 0 | 1770 nM | -5.8 log M | 1700 nM | -5.8 log M | 955 nM | -6 log M | 7130 nM | -5.1 log M | 1.8 fold | – | –
2 | TFISDYSIAMDKIHQQDFVK(C16 diacid)WLLAQK-NH2 (N-terminus assumed; SMILES CC[C@H](C)[C@H](NC(=O)[C@H](CO)NC(=O)[C@H](Cc1ccc(O)cc1)NC(=O)[C@H](CC(=O)O)NC(=O)[C@H](CO)NC(=O)[C@@H](NC(=O)[C@H](Cc1ccccc1)NC(=O)[C@@H](N)[C@@H](C)O)[C@@H](C)CC)C(=O)N[C@@H](C)C(=O)N[C@@H](CCSC)C(=O)N[C@@H](CC(=O)O)C(=O)N[C@@H](CCCCN)C(=O)N[C@H](C(=O)N[C@@H](Cc1c[nH]cn1)C(=O)N[C@@H](CCC(N)=O)C(=O)N[C@@H](CCC(N)=O)C(=O)N[C@@H](CC(=O)O)C(=O)N[C@@H](Cc1ccccc1)C(=O)N[C@H](C(=O)N[C@@H](CCCCNC(=O)CCCCCCCCCCCCCCC(=O)O)C(=O)N[C@@H](Cc1c[nH]c2ccccc12)C(=O)N[C@@H](CC(C)C)C(=O)N[C@@H](CC(C)C)C(=O)N[C@@H](C)C(=O)N[C@@H](CCC(N)=O)C(=O)N[C@@H](CCCCN)C(N)=O)C(C)C)[C@@H](C)CC) [AT184 [hGIP(5-30)NH2[N24K]-C16diacid/24]] | 0 | 91 nM | -7 log M | 11200 nM | -5 log M | 7080 nM | -5.2 log M | 247 nM | -6.6 log M | 1.6 fold | – | –
3 | TFISDYSIAMDKIHQQDFVNK(C16 diacid)LLAQK-NH2 (N-terminus assumed; SMILES CC[C@H](C)[C@H](NC(=O)[C@H](CO)NC(=O)[C@H](Cc1ccc(O)cc1)NC(=O)[C@H](CC(=O)O)NC(=O)[C@H](CO)NC(=O)[C@@H](NC(=O)[C@H](Cc1ccccc1)NC(=O)[C@@H](N)[C@@H](C)O)[C@@H](C)CC)C(=O)N[C@@H](C)C(=O)N[C@@H](CCSC)C(=O)N[C@@H](CC(=O)O)C(=O)N[C@@H](CCCCN)C(=O)N[C@H](C(=O)N[C@@H](Cc1c[nH]cn1)C(=O)N[C@@H](CCC(N)=O)C(=O)N[C@@H](CCC(N)=O)C(=O)N[C@@H](CC(=O)O)C(=O)N[C@@H](Cc1ccccc1)C(=O)N[C@H](C(=O)N[C@@H](CC(N)=O)C(=O)N[C@@H](CCCCNC(=O)CCCCCCCCCCCCCCC(=O)O)C(=O)N[C@@H](CC(C)C)C(=O)N[C@@H](CC(C)C)C(=O)N[C@@H](C)C(=O)N[C@@H](CCC(N)=O)C(=O)N[C@@H](CCCCN)C(N)=O)C(C)C)[C@@H](C)CC) [AT185 [hGIP(5-30)NH2[W25K]-C16diacid/25]] | 18 | 44 nM | -7.4 log M | 1150 nM | -5.9 log M | 246 nM | -6.6 log M | 87 nM | -7.1 log M | 4.7 fold | 44 nM | -7 log M
